Values belong to the molecule of their own block, whether it stands above or below them.
Columns and labels:
[1] = molecular target: nucleosome core particle reconstituted with 207 bp DNA (NCP207) (human) (UniProt P0C0S8); assay: fluorescence polarisation; 5 nM fluorescein-labelled NCP with increasing AF10PZP WT or mutants; 75 mM NaCl, 25 mM Tris-HCl pH 7.5, 0.00625% Tween20, 5 mM DTT; fit to a binding isotherm, S1/2
[2] = molecular target: nucleosome reconstituted with 147 bp 601 DNA (NCP147) (human) (UniProt P0C0S8); assay: as above
AF10PZP WT (mouse) = assay: fluorescence polarization; conditions: S1/2, FP: 25 mM Tris-HCl pH 7.5, 75 mM NaCl, 0.00625% Tween20, 5 mM DTT, 5 nM NCP, NCP EMSA: 25 mM Tris pH 7.5, 75 mM NaCl, 10% glycerol, 0.005% Tween 20, 4 C, DNA …
AF10PZP D43K (mouse) = assay: fluorescence polarization; conditions: 75 mM NaCl; S1/2; FP: 25 mM Tris-HCl pH 7.5, 75 mM NaCl, 0.00625% Tween20, 5 mM DTT, 5 nM NCP; NCP EMSA: 25 mM Tris pH 7.5, 75 mM NaCl, 10% glycerol, 0.005% Tween 20, 4 C; DNA …
AF10PZP E179K (mouse) = assay: fluorescence polarization; conditions: 75 mM NaCl; S1/2; FP: 25 mM Tris-HCl pH 7.5, 75 mM NaCl, 0.00625% Tween20, 5 mM DTT, 5 nM NCP; NCP EMSA: 25 mM Tris pH 7.5, 75 mM NaCl, 10% glycerol, 0.005% Tween 20, 4 C; DNA …
[3] = molecular target: nucleosome core particle reconstituted with 207 bp DNA (NCP207), P0C0S8;P62807;Q71DI3;P62805; assay: fluorescence anisotropy; conditions: chain shown with the change

S1/2 [1]: 14 µM
Molecule: AF10PZP E179K mutant (aa 19–208) (from UniProt O54826 19-208) (domain or fragment)

S1/2 [1]: 9 µM
Molecule: AF10PZP D43K mutant (aa 19–208) (from UniProt O54826 19-208) (domain or fragment)

S1/2 [1]: 6 µM | S1/2 [2]: 15 µM
Molecule: PZP domain of AF10 (AF10PZP, aa 19–208), wild type (from UniProt O54826 19-208) (domain or fragment)

Kd [3]: 9 µM
B1: PZP domain of AF10 (AF10PZP, aa 19–208), wild type, O54826 D43K (protein)
chain: KEMIGGCCVCSDERGWAENPLVYCKGHGCSVAVHQACYGIVQVPTGPWFCRKCESQERAARVRCELCPHKDGALKRTDNGGWAHVVCALYIPEVQFANVSTMEPIVLQSVPHDRYNKTCYICDEQGRESKAATGACMTCNKHGCRQAFHVTCAQFAGLLCEEEGNGADNVQYCGYCKYHFSKLKKSKRGS

The remaining lines, values behind:

Molecule: 207 bp 601 DNA
K half (AF10PZP WT (mouse)): 8 µM

Molecule: NCP207
K half (AF10PZP D43K (mouse)): 9 µM | K half (AF10PZP E179K (mouse)): 14 µM | K half (AF10PZP WT (mouse); 75 mM NaCl): 6 µM

Molecule: NCP147
K half (AF10PZP WT (mouse); 75 mM NaCl): 15 µM
